Test results: article PMC10636204

Target: T1, mouse TMEM63B (purified, GFP tag removed) (mouse), Q3TWI9
T1 chain: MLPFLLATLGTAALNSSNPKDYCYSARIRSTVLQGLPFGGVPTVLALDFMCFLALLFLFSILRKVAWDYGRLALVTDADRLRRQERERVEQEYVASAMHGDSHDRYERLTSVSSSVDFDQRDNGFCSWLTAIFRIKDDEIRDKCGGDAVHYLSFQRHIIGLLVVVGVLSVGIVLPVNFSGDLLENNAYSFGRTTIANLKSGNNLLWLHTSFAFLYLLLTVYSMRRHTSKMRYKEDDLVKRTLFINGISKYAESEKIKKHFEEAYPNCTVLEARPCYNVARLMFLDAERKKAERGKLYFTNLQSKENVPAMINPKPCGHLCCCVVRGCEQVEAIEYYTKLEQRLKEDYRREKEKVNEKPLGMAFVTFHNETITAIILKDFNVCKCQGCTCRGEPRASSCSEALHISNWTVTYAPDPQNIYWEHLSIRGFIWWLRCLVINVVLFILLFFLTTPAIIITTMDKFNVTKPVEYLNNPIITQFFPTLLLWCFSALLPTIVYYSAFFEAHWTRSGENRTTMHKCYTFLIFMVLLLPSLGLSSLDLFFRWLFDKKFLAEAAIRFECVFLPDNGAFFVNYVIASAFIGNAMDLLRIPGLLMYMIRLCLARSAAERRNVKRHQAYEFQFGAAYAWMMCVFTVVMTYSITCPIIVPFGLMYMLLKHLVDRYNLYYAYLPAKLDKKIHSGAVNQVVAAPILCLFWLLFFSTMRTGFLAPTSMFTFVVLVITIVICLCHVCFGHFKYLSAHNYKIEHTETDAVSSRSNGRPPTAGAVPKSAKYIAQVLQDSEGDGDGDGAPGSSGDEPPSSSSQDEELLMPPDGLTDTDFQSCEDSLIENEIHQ
Assay: cryo-EM 2D classification; purified mouse TMEM63B; 2D classification of particles, top/bottom views
Settings: remark: other sources report otherwise

stoichiometry N: 2
B1: mouse TMEM63B (purified, GFP tag removed), Q3TWI9 1-832 (natural protein)
chain: T1 chain
